Source: patent US20120316071A1 (published 2012)

Target: T1, Recombinant Human DLL4 (R&D Systems Cat#1506-D4/CF) (human, UniProt Q9NR61 27-524)
T1 construct: also called delta-like protein 4; Delta-like 4
Assay: ECL (MSD) multispot binding assay, immobilised recombinant human DLL4, Fab at 0.04 uM
Procedure: An 150 μl aliquot of 1% Bovine Serum Albumin (BSA) in Tris-buffered Saline Tween (TBST) was added to each well and allowed to incubate for 30 min at 20° C. followed by washing and tap drying to completely remove any residual solution. Subsequently, a 12.5 μl aliquot of 1% BSA TBST was added to each well followed by the addition of a 12.5 μl aliquot of a purified Fab. The plate was sealed and incubated for 1 hour at 20° C. with shaking
TAG-detection antibody at 25 μl was added to each well and allowed to incubate for 1 hour at 20° C. with shaking. Finally, 15 μl of Read Buffer P with Surfactant (Cat # R92PC-1, Meso Scale Discovery) was added to each well. The electrochemiluminescence was measured using a Sector Imager 2400 (Meso Scale Discovery). Data was analyzed by comparing the ECL signals for an antigen to the blank of each well. A signal to blank ratio of 4 or more was considered a “Hit” Fab.

Binder	ECL Signal/Noise
Fab VH5-51_IGHD5-18*01>3_IGHJ4*01 G100K/G104T (H:KT) & V3-4_IGLJ1*01 (Fab, V domains shown, Tested as purified Fab made in E. coli; also called H:KT & L:wt; KT double mutant) VH: EVQLVQSGAEVKKPGESLKISCKGSGYSFTSYWIGWVRQMPGKGLEWMGIIYPGDSDTRYSPSFQGQVTISADKSISTAYLQWSSLKASDTAMYYCARRKYSYTYDYFDYWGQGTLVTVSS VL: QTVVTQEPSFSVSPGGTVTLTCGLSSGSVSTSYYPSWYQQTPGQAPRTLIYSTNTRSSGVPDRFSGSILGNKAALTITGAQADDESDYYCVLYMGSGISYVFGTGTKVTVL	49.2
Fab VH5-51_IGHD5-18*01>3_IGHJ4*01 G100K/G104T (H:KT) & V3-4_IGLJ1*01 V91A (Fab, V domains shown, Fab; CH1 (His6/Flag tags, plasmid A) and lambda CL (plasmid E) as for the parent) VH: EVQLVQSGAEVKKPGESLKISCKGSGYSFTSYWIGWVRQMPGKGLEWMGIIYPGDSDTRYSPSFQGQVTISADKSISTAYLQWSSLKASDTAMYYCARRKYSYTYDYFDYWGQGTLVTVSS VL: QTVVTQEPSFSVSPGGTVTLTCGLSSGSVSTSYYPSWYQQTPGQAPRTLIYSTNTRSSGVPDRFSGSILGNKAALTITGAQADDESDYYCALYMGSGISYVFGTGTKVTVL	48.5
Fab VH5-51_IGHD5-18*01>3_IGHJ4*01 G100K/G104T (H:KT) & V3-4_IGLJ1*01 M94A (Fab, V domains shown, Fab; CH1 (His6/Flag tags, plasmid A) and lambda CL (plasmid E) as for the parent) VH: EVQLVQSGAEVKKPGESLKISCKGSGYSFTSYWIGWVRQMPGKGLEWMGIIYPGDSDTRYSPSFQGQVTISADKSISTAYLQWSSLKASDTAMYYCARRKYSYTYDYFDYWGQGTLVTVSS VL: QTVVTQEPSFSVSPGGTVTLTCGLSSGSVSTSYYPSWYQQTPGQAPRTLIYSTNTRSSGVPDRFSGSILGNKAALTITGAQADDESDYYCVLYAGSGISYVFGTGTKVTVL	53.1
Fab VH5-51_IGHD5-18*01>3_IGHJ4*01 G100K/G104T (H:KT) & V3-4_IGLJ1*01 L92A (Fab, V domains shown, Fab; CH1 (His6/Flag tags, plasmid A) and lambda CL (plasmid E) as for the parent) VH: EVQLVQSGAEVKKPGESLKISCKGSGYSFTSYWIGWVRQMPGKGLEWMGIIYPGDSDTRYSPSFQGQVTISADKSISTAYLQWSSLKASDTAMYYCARRKYSYTYDYFDYWGQGTLVTVSS VL: QTVVTQEPSFSVSPGGTVTLTCGLSSGSVSTSYYPSWYQQTPGQAPRTLIYSTNTRSSGVPDRFSGSILGNKAALTITGAQADDESDYYCVAYMGSGISYVFGTGTKVTVL	30.3
Fab VH5-51_IGHD5-18*01>3_IGHJ4*01 G100K/G104T (H:KT) & V3-4_IGLJ1*01 G95A (Fab, V domains shown, Fab; CH1 (His6/Flag tags, plasmid A) and lambda CL (plasmid E) as for the parent) VH: EVQLVQSGAEVKKPGESLKISCKGSGYSFTSYWIGWVRQMPGKGLEWMGIIYPGDSDTRYSPSFQGQVTISADKSISTAYLQWSSLKASDTAMYYCARRKYSYTYDYFDYWGQGTLVTVSS VL: QTVVTQEPSFSVSPGGTVTLTCGLSSGSVSTSYYPSWYQQTPGQAPRTLIYSTNTRSSGVPDRFSGSILGNKAALTITGAQADDESDYYCVLYMASGISYVFGTGTKVTVL	34.4
Fab VH5-51_IGHD5-18*01>3_IGHJ4*01 G100K/G104T (H:KT) & V3-4_IGLJ1*01 G97A (Fab, V domains shown, Fab; CH1 (His6/Flag tags, plasmid A) and lambda CL (plasmid E) as for the parent) VH: EVQLVQSGAEVKKPGESLKISCKGSGYSFTSYWIGWVRQMPGKGLEWMGIIYPGDSDTRYSPSFQGQVTISADKSISTAYLQWSSLKASDTAMYYCARRKYSYTYDYFDYWGQGTLVTVSS VL: QTVVTQEPSFSVSPGGTVTLTCGLSSGSVSTSYYPSWYQQTPGQAPRTLIYSTNTRSSGVPDRFSGSILGNKAALTITGAQADDESDYYCVLYMGSAISYVFGTGTKVTVL	24.7
Fab VH5-51_IGHD5-18*01>3_IGHJ4*01 G100K/G104T (H:KT) & V3-4_IGLJ1*01 Y93A (Fab, V domains shown, Fab; CH1 (His6/Flag tags, plasmid A) and lambda CL (plasmid E) as for the parent) VH: EVQLVQSGAEVKKPGESLKISCKGSGYSFTSYWIGWVRQMPGKGLEWMGIIYPGDSDTRYSPSFQGQVTISADKSISTAYLQWSSLKASDTAMYYCARRKYSYTYDYFDYWGQGTLVTVSS VL: QTVVTQEPSFSVSPGGTVTLTCGLSSGSVSTSYYPSWYQQTPGQAPRTLIYSTNTRSSGVPDRFSGSILGNKAALTITGAQADDESDYYCVLAMGSGISYVFGTGTKVTVL	21.3
Fab VH5-51_IGHD5-18*01>3_IGHJ4*01 G100K/G104T (H:KT) & V3-4_IGLJ1*01 S99A (Fab, V domains shown, Fab; CH1 (His6/Flag tags, plasmid A) and lambda CL (plasmid E) as for the parent) VH: EVQLVQSGAEVKKPGESLKISCKGSGYSFTSYWIGWVRQMPGKGLEWMGIIYPGDSDTRYSPSFQGQVTISADKSISTAYLQWSSLKASDTAMYYCARRKYSYTYDYFDYWGQGTLVTVSS VL: QTVVTQEPSFSVSPGGTVTLTCGLSSGSVSTSYYPSWYQQTPGQAPRTLIYSTNTRSSGVPDRFSGSILGNKAALTITGAQADDESDYYCVLYMGSGIAYVFGTGTKVTVL	41
Fab VH5-51_IGHD5-18*01>3_IGHJ4*01 G100K/G104T (H:KT) & V3-4_IGLJ1*01 I98A (Fab, V domains shown, Fab; CH1 (His6/Flag tags, plasmid A) and lambda CL (plasmid E) as for the parent) VH: EVQLVQSGAEVKKPGESLKISCKGSGYSFTSYWIGWVRQMPGKGLEWMGIIYPGDSDTRYSPSFQGQVTISADKSISTAYLQWSSLKASDTAMYYCARRKYSYTYDYFDYWGQGTLVTVSS VL: QTVVTQEPSFSVSPGGTVTLTCGLSSGSVSTSYYPSWYQQTPGQAPRTLIYSTNTRSSGVPDRFSGSILGNKAALTITGAQADDESDYYCVLYMGSGASYVFGTGTKVTVL	32.6
Fab VH5-51_IGHD5-18*01>3_IGHJ4*01 G100K/G104T (H:KT) & V3-4_IGLJ1*01 S96A (Fab, V domains shown, Fab; CH1 (His6/Flag tags, plasmid A) and lambda CL (plasmid E) as for the parent) VH: EVQLVQSGAEVKKPGESLKISCKGSGYSFTSYWIGWVRQMPGKGLEWMGIIYPGDSDTRYSPSFQGQVTISADKSISTAYLQWSSLKASDTAMYYCARRKYSYTYDYFDYWGQGTLVTVSS VL: QTVVTQEPSFSVSPGGTVTLTCGLSSGSVSTSYYPSWYQQTPGQAPRTLIYSTNTRSSGVPDRFSGSILGNKAALTITGAQADDESDYYCVLYMGAGISYVFGTGTKVTVL	57.9
